T1: Screening Peptide DDR1_HUMAN(788-808) (human, N-terminal Glu(Bi-PEG) (residue 1 of the letters given); C-terminal amide (-NH2))
T1 construct: The leading E stands for the printed Glu(Bi-PEG), which is not part of DDR1 788-808; also called non-phosphorylated screening peptide
T1 peptide: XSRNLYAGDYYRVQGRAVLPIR


What was measured:
[1] = target: Screening Peptide DDR1_HUMAN(788-808)[pY796] (human); assay: SPR (Biacore T200), antibody captured by goat anti-rabbit Fc, peptide as analyte, 25 C; value of Table 3 as repeated in the description
[2] = target: Screening Peptide DDR1_HUMAN(788-808)[pY796] (human); assay: ELISA, biotinylated peptide on streptavidin plate, 30 ul transfection supernatant
[3] = target: T1, Screening Peptide DDR1_HUMAN(788-808); assay: as above

Row | Binder | Kd [1] [nM] | OD 405 [2] [OD 405] | OD 405 [3] [OD 405]
1 | rabbit monoclonal anti-pY796-DDR1 antibody 22D9 (antibody, V domains shown, Full-length rabbit IgG (150 kDa), expressed in HEK293 cells; Same variable domains as 31A5; also called clone 22D9) VH: QSVEESGGRLVTPGTPLTLTCKVSGFSLSNYHMIWVRQAPGKGLEWIGIISRRGTTWYASWVKGRFTISKSSTTVDLKITSPTTEDTATYFCARGGVDSSYRDLWGPGTLVTVSS VL: QVLTQTPSSVSAAVGGTVTINCQSNQRVANVNCLAWYQQKPGQPPKLLIYDASSLASGVPSRFSGSGSGTQFTLSISGVQCGDAATYYCQGTYATFGASAWYGDAFGGGTEVVVE | 0.051 | 3.12 | 0.286
2 | rabbit monoclonal anti-pY796-DDR1 antibody 31A5 (antibody, V domains shown, Full-length rabbit IgG (150 kDa), expressed in HEK293 cells; Same variable domains as 22D9; also called clone 31A5) VH: QSVEESGGRLVTPGTPLTLTCKVSGFSLSNYHMIWVRQAPGKGLEWIGIISRRGTTWYASWVKGRFTISKSSTTVDLKITSPTTEDTATYFCARGGVDSSYRDLWGPGTLVTVSS VL: QVLTQTPSSVSAAVGGTVTINCQSNQRVANVNCLAWYQQKPGQPPKLLIYDASSLASGVPSRFSGSGSGTQFTLSISGVQCGDAATYYCQGTYATFGASAWYGDAFGGGTEVVVE |  | 2.98 | 0.253
3 | rabbit monoclonal anti-pY796-DDR1 antibody 20G11 (antibody, V domains shown, Full-length rabbit IgG (150 kDa), recombinantly expressed in HEK293 cells; also called clone 20G11) VH: QSVEESGGRLVTPGTPLTLTCKVSGFSLSNYHMIWVRQAPGKGLEWIGIISRRGTTWYASWVKGRFTISKGSTTVDLKITSPTTEDTATYFCARGGVDSSYRDLWGPGTLVTVSS VL: QVLTQTPSSVSAAVGGTVTINCQSSQRVANVNCLAWYQQKPGQPPKLLIYDASSLASGVPSRFSGSGSGTQFTLSISGVQCGDAATYYCQGTYATFGASAWYGDAFGGGTEVVVE | 0.038 | 3.06 | 0.313
